Test results: US10736933B2, “Peptide-induced NK cell activation” (priority 2015, dated 2020)

Assays:
HLA-Cw*0102 [1] = biological target: T1, HLA-Cw*0102 (Homo sapiens, UniProt P10321, A176E/A330V/A35S/A97T/C350S/D114A/D33F/L171W/L180R/L218V/M285V/M309V/M331V/P208H/Q277E/Q291P/R121W/R243W/R30K/S123C/S140Y/S297R/T329A/T363A/V272M/V319A); experiment: Peptide binding to HLA-Cw*0102 on L721.174 cells (cell surface MHC class I, flow cytometry); assay type: cell-based; conditions: increasing concentrations of peptide, overnight at 26° C.
Method: (§1) The HLA-Cw*0102-positive cell line L721.174 was incubated with increasing concentrations of the LNPSVAATL (SEQ ID NO: 5) peptide or a control peptide VAPWNSLSL (SEQ ID NO: 11). Cells were stained for cell surface of MHC class I and analysed by flow cytometry. The mean fluorescence intensity of cell surface MHC Class I was plotted against the peptide concentration.
as §1, with “HLA-Cw*0102 • positive” for “HLA-Cw*0102-positive”, “peptides IVDLMCHATF” for “LNPSVAATL”, “1); VIDAMCHATL (SEQ ID NO: 2); AANVMAASL (SEQ ID NO: 3); and FLSDVPVATL (SEQ ID NO: 4)” for “5) peptide”, “[…].” for “VAPWNSLSL (SEQ ID NO: 11).”
3×10^5 cells were used per condition. Following washing in PBS the cells were stained for cell surface of MHC class I and analysed by flow cytometry. The mean fluorescence intensity of cell surface MHC Class I was plotted against the peptide concentration.
With reference to FIG. 12, the HLA-Cw*0102-positive cell line L721.174 was incubated with increasing concentrations of the peptides IVDLMCHATF (SEQ ID NO: 1), VIDAMCHATL (SEQ ID NO: 2), AANVMAASL (SEQ ID NO: 3); and FLSDVPVATL (SEQ ID NO: 4) overnight at 26° C. 3×10^5 cells were used per condition. Following washing in PBS the cells were stained for cell surface of MHC class I and analysed by flow cytometry. The mean fluorescence intensity of cell surface MHC Class I was plotted against the peptide concentration.

KIR2DS2 = biological target: T2, KIR2DS2 (Homo sapiens, UniProt P43631); experiment: KIR2DS2 tetramer (KIR2DS2-PE) staining of peptide-loaded L721.174 cells; assay type: binding; conditions: L721.174 cells incubated overnight at 26° C. with peptide, flow cytometry
T2 construct: made in house
Method: A. The KIR2DS2 protein was expressed with a biotinylation C-terminal tag. Following biotinylation with the BirA enzyme, the KIR2DS2 protein was incubated with streptavidin-phycoerythrin to form fluorescent KIR2DS2-tetramers (KIR2DS2-PE). L721.174 cells were then incubated with indicated peptides. Cells were then stained with KIR2DS2-PE and analysed by flow cytometry. Shown are histogram plots. The bold numbers represent the mean fluorescent staining intensity of the KIR2DS2-PE staining of the cells in the presence of peptide and the non-bold numbers the staining in the absence of peptide. B. Represents the mean and standard error fluorescent intensities of the experiment in “A” following replicate experiments.
A. L721.174 cells were incubated with indicated peptides. Cells were then stained with KIR2DS2-PE (see FIG. 4) and analysed by flow cytometry. Shown are histogram plots. The bold numbers represent the mean fluorescent staining intensity of the KIR2DS2-PE staining of the cells in the presence of peptide and the non-bold numbers the staining in the absence of peptide. B. Represents the mean and standard error fluorescent intensities of the experiment in “A” following replicate experiments.
FIG. 13—KIR2DS2 tetramer staining on 174 cells with and without peptides. Peptides tested include IVDLMCHATF (SEQ ID NO: 1); VIDAMCHATL (SEQ ID NO: 2); AANVMAASL (SEQ ID NO: 3); and FLSDVPVATL (SEQ ID NO: 4). A negative control peptide VAPWNSFAL (SEQ ID NO: 12) and positive control peptide LNPSVAATL (SEQ ID NO: 5) were included. The mean fluorescence intensity of the KIR2DS2 tetramer staining is shown in the right hand corner of the graph.
With reference to FIG. 4A, the KIR2DS2 protein was expressed as a recombinant protein with a biotinylation C-terminal tag. Following biotinylation with the BirA enzyme, the KIR2DS2 protein was incubated with streptavidin-phycoerythrin to form fluorescent KIR2DS2-tetramers (KIR2DS2-PE). 3×10^5 L721.174 cells were then incubated overnight at 26° C. with indicated peptides at a concentration of […]. Cells were then stained with KIR2DS2-PE and analysed by flow cytometry. Shown are histogram plots. The bold numbers represent the mean fluorescent staining intensity of the KIR2DS2-PE staining of the cells in the presence of peptide and the non-bold numbers the staining in the absence of peptide. With reference to FIG. 4B, panel B represents the mean and standard error fluorescent intensities of the experiment in “A” following replicate experiments.
With reference to FIG. 5A, 3×10^5 L721.174 cells were incubated overnight at 26° C. with indicated peptides at a concentration of 200 μM. Cells were then stained with KIR2DS2-PE (see FIG. 4) and analysed by flow cytometry. Shown are histogram plots. The bold numbers represent the mean fluorescent staining intensity of the KIR2DS2-PE staining of the cells in the presence of peptide and the non-bold numbers the staining in the absence of peptide. With reference to FIG. 5B, panel B represents the mean and standard error fluorescent intensities of the experiment in “A” following replicate experiments.
With reference to FIG. 13, the KIR2DS2 protein was expressed as a recombinant protein with a biotinylation C-terminal tag. Following biotinylation with the BirA enzyme, the KIR2DS2 protein was incubated with streptavidin-phycoerythrin to form fluorescent KIR2DS2-tetramers (KIR2DS2-PE). […] Cells were then stained with KIR2DS2-PE and analysed by flow cytometry. […]

[2] = test system: NKL cell line transfected with KIR2DS2; experiment: Vav1 phosphorylation (pVav1 Western blot) in NKL cells transfected with KIR2DS2; assay type: cell-based; conditions: HLA-C*0304:ICP47:721.221 cells loaded with peptide; 5 minutes
Method: A. L721.174 cells were incubated with indicated peptides. The cells were then incubated with the NK cell line transfected with KIR2DS2. The cells were lysed and the KIR2DS2 was then immunoprecipitated from the mixture using the GL183 antibody coupled to protein-G beads. The immune precipitate was analysed by Western blotting using a phosphotyrosine antibody. The membrane was then stripped and reprobed with an antibody to DAP12 the molecule that transduces a positive signal from KIR2DS2. Shown are the regions on the blots at the level of DAP12 (12-15 kDa). B. L721.174 cells were incubated with indicated peptides. The cells were then incubated with the NK cell line transfected with KIR2DS2 or transfected with KIR2DL2. The cells were lysed in 1% NP-40 and then analysed by Western blotting using antibodies to pVav1 and then following stripping of the membrane to Vav1. Shown are Western blots around the 98 kDa region, and below them the corresponding densitometries for 3 independent experiments.
FIG. 7 1×10^6 L721.221-HLA-C*0304-ICP47 cells were incubated overnight at 26° C. with indicated peptides at a concentration of […]. The cells were then incubated with the NKL cell line transfected with KIR2DS2 or transfected with KIR2DL2 for 5 minutes. The cells were lysed in 1% NP-40 and then analysed by Western blotting using antibodies to pVav1 and then following stripping of the membrane to Vav1. Shown are Western blots around the 98 kDa region, and below them the corresponding densitometries for 2 independent experiments.
FIG. 14—The Dengue virus peptide IVDLMCHATF (SEQ ID NO: 1) activates KIR2DS2 positive NK cells. 174 cells were incubated with the IVDLMCHATF (SEQ ID NO: 1) and then KIR2DS2-positive transfected NKL cells or KIR2DL2-positve transfected NKL cells. Activation of NK cells was assessed by western blotting for phosphorylated Vav1, and compared to total Vav1.
With reference to FIG. 6A, 1×10^6 L721.174 cells were incubated overnight at 26° C. with indicated peptides at a concentration of […]. The cells were then incubated with the NK cell line transfected with KIR2DS2 for 5 minutes. The cells were lysed in 1% digitonin buffer and the KIR2DS2 was then immunoprecipitated from the mixture using the GL183 antibody coupled to protein-G beads. The immune precipitate was analysed by Western blotting using a phosphotyrosine antibody. […] The cells were lysed in 1% NP-40 and then analysed by Western blotting using antibodies to pVav1 and then following stripping of the membrane to Vav1. […]
With reference to FIG. 7, 1×10^6 HLA-C*0304:ICP47:721.221 cells were incubated overnight at 26° C. with indicated peptides at a concentration of […]. […] The cells were lysed in 1% NP-40 and then analysed by Western blotting using antibodies to pVav1 and then following stripping of the membrane to Vav1. […]

[3] = test system: KIR2DS2-positive NK cells; experiment: CD107a degranulation of NK cells from KIR2DS2-positive donors cultured with peptide-loaded L721.174 cells; assay type: cell-based; conditions: KIR2DS2-positive donor, CH-L antibody positive NK cells, four hours, compared to no peptide
Method: (§2) A. cells were incubated in the presence or absence of peptides, and then cultured with NK cells from either a KIR2DS2-positive or KIR2DS2-negative donor. The level of CD107a (LAMP) expression was measured on NK cells positive for the CH-L antibody. This antibody binds to KIR2DS2, KIR2DL2 and KIR2DL3. B. Summary data from 5 KIR2DS2-positive and 6 KIR2DS2 • negative donors tested as per panel A of FIG. 2. To compare the different donors the data are normalized to 100% for the no peptide condition.
(§3) With reference to FIG. 2A, 3×10^5 L721.174 cells were incubated at 26° C. overnight in the presence or absence of peptides, and then cultured for four hours with NK cells from either a KIR2DS2-positive or KIR2DS2-negative donor. The level of CD107a (LAMP) expression was measured on NK cells positive for the CH-L antibody. This antibody binds to KIR2DS2, KIR2DL2 and KIR2DL3. […] With reference to FIG. 2B, summary data from 5 KIR2DS2-positive and 6 KIR2DS2 • negative donors were tested as per panel A of FIG. 2. To compare the different donors the data are normalized to 100% for the no peptide condition.

[4] = test system: KIR2DS2-negative donor NK cells; experiment: CD107a degranulation of NK cells from KIR2DS2-negative donors cultured with peptide-loaded L721.174 cells; assay type: cell-based; conditions: CH-L antibody positive NK cells, four hours, compared to no peptide
Method: as §2, §3

HLA-Cw*0102 [5] = biological target: T1, HLA-Cw*0102; conditions: control peptide, known binder; cited from earlier work

T2 sequence (P43631 22-245 limits assumed): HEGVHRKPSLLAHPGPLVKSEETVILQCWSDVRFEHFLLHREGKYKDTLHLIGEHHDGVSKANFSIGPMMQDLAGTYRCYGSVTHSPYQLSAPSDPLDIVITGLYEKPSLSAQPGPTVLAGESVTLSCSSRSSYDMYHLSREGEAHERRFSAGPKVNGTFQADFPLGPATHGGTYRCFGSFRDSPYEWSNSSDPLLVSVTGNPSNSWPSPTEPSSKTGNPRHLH

AANVMAASL
binding to HLA-Cw*0102 (mean fluorescence intensity of cell surface MHC Class I) (HLA-Cw*0102 [1]): bind HLA-Cw*0102 | KIR2DS2-PE tetramer binding to HLA-C*0102 and peptide (KIR2DS2): KIR2DS2 BINDS

FLSDVPVATL
binding to HLA-Cw*0102 (mean fluorescence intensity of cell surface MHC Class I) (HLA-Cw*0102 [1]): bind HLA-Cw*0102 | KIR2DS2-PE tetramer binding to HLA-C*0102 and peptide (KIR2DS2): KIR2DS2 BINDS

GAVPDLATL
activation of KIR2DS2 (pVav1 vs Vav1) [2]: KIR2DS2 IS ACTIVATED

GAVPDLAWL
activation of KIR2DS2 (pVav1 vs Vav1) [2]: KIR2DS2 IS ACTIVATED

VAPWNSFAL [VAP-FA, negative control peptide, reference compound]
level of CD107a (LAMP) degranulation [3]: lower levels of degranulation | level of CD107a (LAMP) degranulation [4]: lower levels of degranulation

VAPWNSLSL
binding to HLA-Cw*0102 (HLA-Cw*0102 [5]): known to bind HLA-Cw*0102

VIDAMCHATL
binding to HLA-Cw*0102 (mean fluorescence intensity of cell surface MHC Class I) (HLA-Cw*0102 [1]): bind HLA-Cw*0102 | KIR2DS2-PE tetramer binding to HLA-C*0102 and peptide (KIR2DS2): KIR2DS2 BINDS
